B1: recombinant MEKK4 protein expressed in E. coli, residues 1261-1597 of the full length protein (enzyme)
chain: RRSWELRTLISQTKDSASKQGPIEAIQKSVRLFEERRYREMRRKNIIGQVCDTPKSYDNVMHVGLRKVTFKWQRGNKIGEGQYGKVYTCISVDTGELMAMKEIRFQPNDHKTIKETADELKIFEGIKHPNLVRYFGVELHREEMYIFMEYCDEGTLEEVSRLGLQEHVIRLYTKQITVAINVLHEHGIVHRDIKGANIFLTSSGLIKLGDFGCSVKLKNNAQTMPGEVNSTLGTAAYMAPEVITRAKGEGHGRAADIWSLGCVVIEMVTGKRPWHEYEHNFQIMYKVGMGHKPPIPERLSPEGKAFLSHCLESDPKIRWTASQLLDHAFVKVCTDEE
notes: No tag is stated; also called truncated recombinant MEKK4
B2: MEKK4 from a Cos cell transient transfection (enzyme)
chain: MRDAIAEPVPPPALADTPAAAMEELRPAPPPQPEPDPECCPAARQECMLGESARKSMESDPEDFSDETNTETLYGTSPPSTPRQMKRLSAKHQRNSAGRPASRSNLKEKMNTPSQSPHKDLGKGVETVEEYSYKQEKKIRATLRTTERDHKKNAQCSFMLDSVAGSLPKKSIPDVDLNKPYLSLGCSNAKLPVSMPMPIARTARQTSRTDCPADRLKFFETLRLLLKLTSVSKKKDREQRGQENTAAFWFNRSNELIWLELQAWHAGRTINDQDLFLYTARQAIPDIINEILTFKVNYGSIAFSSNGAGFNGPLVEGQCRTPQETNRVGCSSYHEHLQRQRVSFEQVKRIMELLEYMEALYPSLQALQKDYERYAAKDFEDRVQALCLWLNITKDLNQKLRIMGTVLGIKNLSDIGWPVFEIPSPRPSKGYEPEDEVEDTEVELRELESGTEESDEEPTPSPRVPELRLSTDTILDSRSQGCVSRKLERLESEEDSIGWGTADCGPEASRHCLTSIYRPFVDKALKQMGLRKLILRLHKLMNGSLQRARVALVKDDRPVEFSDFPGPMWGSDYVQLSGTPPSSEQKCSAVSWEELRAMDLPSFEPAFLVLCRVLLNVIHECLKLRLEQRPAGEPSLLSIKQLVRECKEVLKGGLLMKQYYQFMLQEVLGGLEKTDCNMDAFEEDLQKMLMVYFDYMRSWIQMLQQLPQASHSLKNLLEEEWNFTKEITHYIRGGEAQAGKLFCDIAGMLLKSTGSFLESGLQESCAELWTSADDNGAADELRRSVIEISRALKELFHEARERASKALGFAKMLRKDLEIAAEFVLSASARELLDALKAKQYVKVQIPGLENLHVFVPDSLAEEKKIILQLLNAATGKDCSKDPDDVFMDAFLLLTKHGDRARDSEDGWGTWEARAVKIVPQVETVDTLRSMQVDNLLLVVMESAHLVLQRKAFQQSIEGLMTVRHEQTSSQPIIAKGLQQLKNDALELCNRISDAIDRVDHMFTLEFDAEVEESESATLQQYYREAMIQGYNFGFEYHKEVVRLMSGEFRQKIGDKYISFAQKWMNYVLTKCESGRGTRPRWATQGFDFLQAIEPAFISALPEDDFLSLQALMNECIGHVIGKPHSPVTAIHRNSPRPVKVPRCHSDPPNPHLIIPTPEGFSTRSVPSDARTHGNSVAAAAAVRAAATTAAGRPGPGGGDSVPAKPVNTAPDTRGSSVPENDRLASIAAELQFRSLSRHSSPTEERDEPAYPRSDSSGSTRRSWELRTLISQTKDSASKQGPIEAIQKSVRLFEERRYREMRRKNIIGQVCDTPKSYDNVMHVGLRKVTFKWQRGNKIGEGQYGKVYTCISVDTGELMAMKEIRFQPNDHKTIKETADELKIFEGIKHPNLVRYFGVELHREEMYIFMEYCDEGTLEEVSRLGLQEHVIRLYTKQITVAINVLHEHGIVHRDIKGANIFLTSSGLIKLGDFGCSVKLKNNAQTMPGEVNSTLGTAAYMAPEVITRAKGEGHGRAADIWSLGCVVIEMVTGKRPWHEYEHNFQIMYKVGMGHKPPIPERLSPEGKAFLSHCLESDPKIRWTASQLLDHAFVKVCTDEE
notes: also called MEKK4.2

Columns and labels:
Assay in all cases: GST fusion pull-down on glutathione-Sepharose, anti-MEKK4 immunoblot
[1] = biological target: T1, GST-Cdc42 (GDP bound) on glutathione-Sepharose (UniProt P60953 1-191)
T1 construct: Loaded with GDP; not shown: glutathione S-transferase fusion partner
Description: (§1) Each GST fusion protein had GTPγs or GDP bound to the Cdc42, Rac or Ras moiety of the fusion protein. Following the incubation the beads were washed extensively and the bound proteins removed in SDS-Laemmli buffer and resolved by SDS-PAGE using 10% acrylamide gels.

[2] = biological target: T2, GST-Rac (GDP bound) on glutathione-Sepharose (UniProt P08515 1-218 = GST)
T2 construct: Loaded with GDP
Description: as §1

[3] = biological target: T3, GST fusion protein of Ha-Ras (GTPγS bound) on glutathione-Sepharose (UniProt P08515 1-218 = GST; P01112 1-189)
T3 construct: also called GST-Ras
Description: as §1

[4] = biological target: T4, GST fusion protein of Ha-Ras (GDP bound) on glutathione-Sepharose (UniProt P08515 1-218 = GST; P01112 1-189)
T4 construct: also called GST-Ras
Description: as §1

T2 sequence (P08515 whole entry): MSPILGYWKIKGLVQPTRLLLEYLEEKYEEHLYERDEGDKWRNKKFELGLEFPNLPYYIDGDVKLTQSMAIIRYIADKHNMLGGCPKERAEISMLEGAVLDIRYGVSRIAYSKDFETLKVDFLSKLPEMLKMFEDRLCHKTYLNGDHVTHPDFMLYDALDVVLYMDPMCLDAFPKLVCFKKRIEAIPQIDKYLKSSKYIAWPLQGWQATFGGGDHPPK
T1 sequence (P60953 whole entry, the tested form may be a part): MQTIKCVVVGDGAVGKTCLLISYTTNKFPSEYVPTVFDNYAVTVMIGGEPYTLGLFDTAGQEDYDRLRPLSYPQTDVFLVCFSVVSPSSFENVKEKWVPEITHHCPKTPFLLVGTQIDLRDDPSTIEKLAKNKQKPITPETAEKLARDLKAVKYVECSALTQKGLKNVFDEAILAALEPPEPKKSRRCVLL
T3 sequence (P08515 1-218, tags or fused parts left off): as the sequence (P08515 whole entry) above
T4 sequence (P08515 1-218, tags or fused parts left off): as the sequence (P08515 whole entry) above

Binder | percent of the MEKK4 bound in the presence of GTPγS [1] [%] | percent of the MEKK4 bound in the presence of GTPγS [2] [%] | binding result [3] | binding result [4]
B1 | < 10 | < 10 | no binding | no binding
B2 | < 10 | < 10 |  | 
